Here are results for 2 molecules from article PMC6742648, “A potent broadly neutralizing human RSV antibody targets conserved site IV of the fusion glycoprotein” (Nature Communications, 2019).

Assay [1] concerns the target T1, stabilized pre-fusion RSV F glycoprotein (DS-Cav1) (Human respiratory syncytial virus A, …, stabilised). Briefly: cell-based or functional assay.
Assay [2] has as its target T1, stabilized pre-fusion RSV F …. Briefly: SPR; Biacore T200; D25 antibody on Protein A chip captures 50 RU DS-Cav1; RB1 Fab flowed in two-fold dilutions 0.31-20 nM, 50 ul/min; 1:1 Langmuir fit. As to conditions: both partners purified. Background: In SPR one partner is held on a chip, and binding of the other changes the refractive index at the surface.
The target in assay [3] is T2, post-fusion RSV F glycoprotein (F∆FP) (Human respiratory syncytial virus A, …, stabilised).
T2 construct: RSV fusion (F) glycoprotein, soluble post-fusion form F∆FP; post-fusion F structure PDB 3RRR; also called post-fusion F protein; RSV F post-Fusion; source: Expi293F, transfected, purified from culture supernatant (Ni-Sepharose, Strep-Tactin, thrombin digestion, Superdex 200)
Kind of assay: SPR; Biacore T200; Synagis antibody on Protein A chip captures 50 RU post-fusion F; RB1 Fab flowed in two-fold dilutions 200-3.12 nM, 40 s dissociation; 1:1 Langmuir fit. As to conditions: both partners purified.

B1: RB1, fully human IgG1 monoclonal antibody (antibody, V domains shown)
VH: EVQLVESGGGLVRPGRSLRLSCTVSGFSFDDSAMSWVRQAPGKGLEWISFIKSKTYGGTKEYAASVKGRFTISRDDSKNIAYLQMNSLKTEDTAVYYCTRGAPYGGNSDYYYGLDVWGQGTTVTVSS
VL: DIQMTQSPSSLSASVGDRVTITCRTSQDVRGALAWYQQKPGKAPKLLIFDASSLETGVPSRFSGSGSGTVFTLTISSLQPEDFAAYYCQQFLDFPFTFGQGTRLEIK
On to B1, for which, in assay [1], the “microneutralization of RSV A (Long) on HEp-2 cells, IC50 (F on the virus, strain Long)” value stood at 2.9 ng/mL and the “microneutralization of RSV B (Washington) on HEp-2 cells, IC50 (F on the virus, subtype B strain)” value was 1.7 ng/mL.

B2: RB1 fragment antigen-binding (Fab) (Fab, V domains shown)
VH: EVQLVESGGGLVRPGRSLRLSCTVSGFSFDDSAMSWVRQAPGKGLEWISFIKSKTYGGTKEYAASVKGRFTISRDDSKNIAYLQMNSLKTEDTAVYYCTRGAPYGGNSDYYYGLDVWGQGTTVTVSS
VL: DIQMTQSPSSLSASVGDRVTITCRTSQDVRGALAWYQQKPGKAPKLLIFDASSLETGVPSRFSGSGSGTVFTLTISSLQPEDFAAYYCQQFLDFPFTFGQGTRLEIK
notes: Fab heavy chain of RB1 (VH as the heavy chain of m1, plus CH1 of human IgG1 up to the cleavage site); light chain of RB1, as the light chain of m1; The preparation of the Fab is told for the crystallisation; also called RB1 Fab; monovalent RB1 Fab; source: RB1 mAb (CHO-3E7, Protein A purified) cleaved into monovalent Fab with the Fab Preparation Kit (Pierce)
For B2, in assay [2], the Kd was 0.022 nM, the koff was 0.000164 s⁻¹ and the kon came out at 7.35e+06 M⁻¹ s⁻¹. In assay [3], this molecule showed a Kd of 135 nM, a koff of 0.15 s⁻¹ and a kon of 1.12e+06 M⁻¹ s⁻¹.

A word on the Kd: it is the free concentration of one partner at which half of the binding sites on the other are occupied at equilibrium, for simple one-to-one binding. Low readings indicate a tighter complex, high ones a looser complex. As usually defined, the koff is a measure of how fast the partners let go of each other. Low values mean slow dissociation, high ones fast dissociation. The term kon denotes the rate constant with which the complex forms. The low end stands for slow association, the high end for fast association.
